# Positions count from the first letter of the chain named. In names and notes the source's numbering stands.
# B1: CODA806: engineered receptor: Y115D, L131Q in SEQ ID NO: 33 (Chemogenic receptor-11) (protein)
# chain: MRCSPGGVWLALAASLLHVSLQGEFQRKLYKELVKNYNPLERPVANDSQPLTVYFSLSLLQIMDVDEKNQVLTTNIWLQMSWTDHYLQWNVSEYPGVKTVRFPDGQIWKPDILLDNSADERFDATFHTNVQVNSSGHCQYLPPGIFKSSCPMDLKNFPMDVQTCKLKFGSWSYGGWSLDLQMQEADISGYIPNGEWDLVGIPGKRSERFYECCKEPYPDVTFTVTMRRRMGYYLIQMYIPSLLIVILSWISFWINMDAAPARVGLGITTVLTMTTQSSGSRASLPKVSYVKAIDIWMAVCLLFVFSALLEYAAVNFVSRQHKELLRFRRKRRHHKSPMLNLFQEDEAGEGRFNFSAYGMGPACLQAKDGISVKGANNSNTTNPPPAPSKSPEEMRKLFIQRAKKIDKISRIGFPMAFLIFNMFYWIIYKIVRREDVHNQ
# modifications: synthetic sequence of chimeric LGIC
# B2: CODA1027: engineered receptor: R101F, L131D in SEQ ID NO: 33 (protein)
# chain: B1 chain with R101F, D115Y, Q131D
# modifications: synthetic sequence of chimeric LGIC
# B3: CODA1054: engineered receptor: R101M, L131F in SEQ ID NO: 33 (protein)
# chain: B1 chain with R101M, D115Y, Q131F
# modifications: synthetic sequence of chimeric LGIC
# B4: COAD1055 (protein)
# chain: B1 chain with R101W, D115E, Q131L, Y210W
# modifications: synthetic sequence of chimeric LGIC
# B5: CODA1045: engineered receptor: R101W, Y210V in SEQ ID NO: 33 (protein)
# chain: B1 chain with R101W, D115Y, Q131L, Y210V
# modifications: synthetic sequence of chimeric LGIC
# B6: CODA1039: engineered receptor: Y115E, Y210W in SEQ ID NO: 33 (protein)
# chain: B1 chain with D115E, Q131L, Y210W
# modifications: synthetic sequence of chimeric LGIC
# B7: COAD1056 (protein)
# chain: B1 chain with R101F, D115E, Q131L, Y210W
# modifications: synthetic sequence of chimeric LGIC
# B8: CODA1048: engineered receptor: R101F, Y210F in SEQ ID NO: 33 (protein)
# chain: B1 chain with R101F, D115Y, Q131L, Y210F
# modifications: synthetic sequence of chimeric LGIC
# B9: CODA1025: engineered receptor: R101F, L131G in SEQ ID NO: 33 (protein)
# chain: B1 chain with R101F, D115Y, Q131G
# modifications: synthetic sequence of chimeric LGIC
# Tested on: rat DRG neurons
# Test: Rheobase shift / evoked action potentials, rat DRG neurons (current clamp)
# Assay type: cell-based
# Conditions: Acetylcholine at 3.0 mM; transduced neurons; n=4; FIG. 4B
# Description: Using whole cell manual patch clamp electrophysiology in HEK293 cells, rat DRG neurons and rat hippocampal neurons, the EC50 of the various engineered receptors disclosed herein to Ach and non-native ligands was measured using the Hill equation with peak current measurements from escalating doses of ligand. The rheobase shift was also measured in rat DRG neurons, which reflects the efficacy of the receptors. To calculate the rheobase, first, the amount of current that can produce an action potential was determined. Then the ligand was added, followed by a step wise increase in the current injected up to 700 pA.
# DRG rheobase experiments were performed in current clamp mode using a potassium-based internal solution containing: 100 mM potassium D-gluconate, 28 mM potassium chloride, 1 mM magnesium chloride hexahydrate, 5 mM magnesium ATP, 10 mM HEPES, and 0.5 mM EGTA (pH=7.2 with potassium hydroxide, osmolarity=290-295 mOsm, calculated liquid junction potential=−13.5 mV). To measure DRG input resistance and rheobase, 500 ms current steps (−200 pA to 700 pA) were applied the membrane in the presence and absence of a compound. No holding current was applied to the membrane for cells included in the final datasets. Data were acquired at 10 kHz, with Bessel filter at 2 kHz and series resistance compensation at 100%. Rheobase was defined as the smallest depolarizing current injection required to cause an action potential to fire in the cell. In a subset of cells, the rheobase was ambiguous, since the action potential appeared to be graded in amplitude. In these cases, a […] of the trace clarified the rheobase. Input resistance was measured from the negative current injections, calculated as the difference in membrane potential at steady state divided by the current injection amplitude and then averaged across the four negative current steps for each recording. Resting membrane potential was measured from the first 100 ms of each sweep, averaged for each recording, and corrected for liquid junction potential. One-way ANOVA with multiple comparisons was used to test for significance of difference in rheobase and input resistance between baseline, drug, and wash conditions.
# DRG neurons: DRG rheobase experiments were performed in current clamp mode using a potassium-based internal solution containing (in mM): 100 potassium D-gluconate (G4500), 28 potassium chloride (P9333), 1 magnesium chloride hexahydrate (M2670), 5 magnesium ATP (A9187), 10 HEPES (54457), and 0.5 EGTA (3777) (pH=7.2 with potassium hydroxide, osmolarity=290-295 mOsm, calculated liquid junction potential=−13.5 mV). To measure DRG input resistance and rheobase, 500 ms current steps (−200 pA to 700 pA) were applied the membrane (−400 pA to 700 pA in an early version of the protocol) in the presence and absence of a compound. No holding current was applied to the membrane for cells included in the final datasets. Data were acquired at 10 kHz, with Bessel filter at 2 kHz and series resistance compensation at 100%. Rheobase was defined as the smallest depolarizing current injection required to cause an action potential to fire in the cell. In a subset of cells, the rheobase was ambiguous, since the action potential appeared to be graded in amplitude. In these cases, a […] of the trace clarified the rheobase. Input resistance was measured from the negative current injections, calculated as the difference in membrane potential at steady state divided by the current injection amplitude and then averaged across the four negative current steps for each recording. Resting membrane potential was measured from the first 100 ms of each sweep, averaged for each recording, and corrected for liquid junction potential. One-way ANOVA with multiple comparisons was used to test for significance of difference in rheobase and input resistance between baseline, drug, and wash conditions.
row,Molecule,effect on evoked action potentials
1,B1,no effect

# Same assay, conditions: RG-3487 (SA-2) at 3 μM; transduced rat DRG neurons; FIG. 4A
row,Molecule,current injection evoked action potentials
1,B1,reversibly inhibits current injection evoked action potentials

# Same assay, conditions: RG-3487 (SA-2) at 3 μM; transduced rat DRG neurons; n=7
row,Molecule,increase in the current required to elicit action potentials [x]
1,B1,~3

# Same assay, conditions: baseline, no ligand; neurons expressing the receptor
row,Molecule,"Rheobase Shift; Rat DRG Neurons, Baseline [pA]"
1,B1,163 ± 28
2,B2,100 ± 23
3,B3,105 ± 13
4,B4,83 ± 7
5,B5,141 ± 22
6,B6,88 ± 9
7,B7,114 ± 12
8,B8,120 ± 19
9,B9,140 ± 19

# Same assay, conditions: ligand Facinicline/RG-3487 at EC90
row,Molecule,"Rheobase Shift; Rat DRG Neurons, Facinicline/RG-3487 @ EC90 [pA]"
1,B1,625 ± 35

# Same assay, conditions: ligand TC-5619 at EC90
row,Molecule,"Rheobase Shift; Rat DRG Neurons, +TC-5619 @ EC90 [pA]"
1,B2,638 ± 63
2,B3,673 ± 27
3,B4,562 ± 35
4,B5,700 ± 0
5,B6,453 ± 58
6,B7,632 ± 43
7,B8,590 ± 46
8,B9,560 ± 72

# — patent US20250152742A1, “COMPOSITIONS AND METHODS FOR NEUROLOGICAL DISEASES” (Trames Bio, Inc., priority 2022, published 2025)
